From patent US20250154283A1 (published 2025)

Biological target: T1, biotinylated human VWF cysteine knot (CK) domain construct (human, biotin on the in vitro biotinylation tag (residue not stated); one N-glycan)
T1 construct: Disulfide-linked homodimer; also called biotinylated human VWF CK domain; human VWF CK domain construct
T1 chain: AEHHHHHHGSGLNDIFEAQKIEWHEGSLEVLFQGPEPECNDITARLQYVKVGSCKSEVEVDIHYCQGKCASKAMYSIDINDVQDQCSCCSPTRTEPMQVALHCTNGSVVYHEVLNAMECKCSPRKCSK
Test: SPR, scFv captured on anti-SV5, pH 7.4

B1: 965_Lib4_scFv (scFv, not shown: small tags and cut ends)
scFv: QVQLQESGPGLVKPSQTLSLTCTVSGASFGDNYWSWIRQPPGKGLEWIGYIDTSGSSDYNPSLKSRVTMSVDTSKNQFSLKVNSVTAADTAVYYCARDALGYYYMDVWGKGTTVTVSSSGGSTITSYNVYYTKLSSSGTEIVMTQSPATLSLSPGERATLSCRASQGISGRLAWYQQKPGQAPRLLIYDASARASGIPARFSGSGSGTDFTLTISSLEPEDFAVYYCQQYGTSPYTFGGGTKVEIK
B1: binds.

B2: 27_Lib4_scFv (scFv, not shown: small tags and cut ends)
scFv: QVQLQESGPGLVKPSQTLSLTCTVSGASFGDHYWSWIRQPPGKGLEWIGYIDATGSIDYNPSLKSRVTMSVDTSKNQFSLKVNSVTAADTAVYYCARVASYYYYMDVWGKGTTVTVSSSGGSTITSYNVYYTKLSSSGTEIVMTQSPATLSLSPGERATLSCRASQSITGSYLAWYQQKPGQAPRLLIYGASDRAPGIPARFSGSGSGTDFTLTISSLEPEDFAVYYCQQYGSFPYTFGGGTKVEIK
B2: binds.

B3: 1675_Lib1_scFv (scFv, not shown: small tags and cut ends)
scFv: QVQLVQSGAEVKKPGASVKVSCKVSGVTLTSSAISWVRQAPGKGLEWMGGITPIFGTPIYAQKFQGRVTMTEDTSTDTAYMELSSLKSEDTAVYYCATDYGYPFWAFDIWGQGTMVTVSSSGGSTITSYNVYYTKLSSSGTDIQMTQSPSSVSASVGDRVTITCRASQGIYSALAWYQQKPGKAPKLLIYESSKRPSGVPSRFSGSGSGTDFTLTISSLQPEDFANYYCEQYASSPPTFGGGTKVEIK
B3: binds.

B4: 15244_Lib8_scFv (scFv, not shown: small tags and cut ends)
scFv: EVQLVESGGGLVQPGRSLRLSCAASGFTFADYDMHWVRQAPGKGLEWVSATSSHGVTTDYADSVEGRFTISRDNAKNSLYLQMNSLRAEDTAVYYCARGAWSGIAARQYIDYWGQGTLVTVSSSGGSTITSYNVYYTKLSSSGTDIQMTQSPSSLSASVGDRVTITCRASQTIGYWLAWYQQKPGKAPKLLIYDASVPESGVPSRFSGSGSGTDFTLTISSLQPEDVATYYCQQSYSYPLTFGGGTKVEIK
B4: binds.

B5: Lib4_P2_A11_scFv (scFv, not shown: small tags and cut ends)
scFv: QVQLQESGPGLVKPSQTLSLTCTVSGVTFSSYGWSWIRQPPGKGLEWIGYVDTSGSTDYNPSLKSRVTMSVDTSKNQFSLKVNSVTAADTAVYYCARTTYYYDSSGFARGWFDPWGQGTLVTVSSSGGSTITSYNVYYTKLSSSGTEIVMTQSPATLSLSPGERATLSCRASRSISTNLAWYQRKPGQAPRLLIYDTSNRAPGIPARFSGSGSGTDFTLTISSLEPEDFAVYYCLQYDVSPYTFGGGTKVEIK
notes: also called Lib4_P2_All
B5: binds.

B6: 69_Lib8_scFv (scFv, not shown: small tags and cut ends)
scFv: EVQLVESGGGLVQPGRSLRLSCAASAFTFSNYDMHWVRQAPGKGLEWVSAISGSGDTSDYADSVEGRFTISRDNAKNSLYLQMNSLRAEDTAVYYCVRASWYGTFFDYWGQGTLVTVSSSGGSTITSYNVYYTKLSSSGTDIQMTQSPSSLSASVGDRVTITCRASQSVSGWLAWYQQKPGKAPKLLIYGTSTLQSGVPSRFSGSGSGTDFTLTISSLQPEDVATYYCQQSYSAPYTFGGGTKVEIK
B6: binds.

B7: 76_Lib4_scFv (scFv, not shown: small tags and cut ends)
scFv: QVQLQESGPGLVKPSQTLSLTCTVSGVSISNHYWSWIRQPPGKGLEWIGYIDESGSTDYNPSLKSRVTMSVDTSKNQFSLKVNSVTAADTAVYYCARVSWGYYAMDVWGQGTTVTVSSSGGSTITSYNVYYTKLSSSGTEIVMTQSPATLSLSPGERATLSCRASQGVSGHLAWYQQKPGQAPRLLIYETSKRATGIPARFSGSGSGTDFTLTISSLEPEDFAVYYCQQYNDYPLGFGGGTKVEIK
B7: binds.

B8: 4675_Lib4_scFv (scFv, not shown: small tags and cut ends)
scFv: QVQLQESGPGLVKPSQTLSLTCTVSGFSLTSHPEGVNWIRQPPGKGLEWIGYIAHSGTTDYNPSLKSRVTMSVDTSKNQFSLKVNSVTAADTAVYYCARAYGDSDAFDIWGQGTMVTVSSSGGSTITSYNVYYTKLSSSGTEIVMTQSPATLSLSPGERATLSCRASQSIGRNLAWYQQKPGQAPRLLIYGASKRVTGIPARFSGSGSGTDFTLTISSLEPEDFAVYYCQQYSTWPTFGGGTKVEIK
B8: binds.
